Earlier results on one substance are cited in patent US6468959B1, “Peroral dosage form for peptide containing medicaments, in particular insulin” (ALFATEC-Pharm GmbH, priority 1991, dated 2002).

For this data set the following is noted: weakly acid environments of pH 3 to 4 and at pH 7 to 8.

For insulin, the solubility entry was “soluble” and the stability entry is “adequately stable”.
